# Tests used:
# [1] = tested on: CC(=O)Oc1ccc([N+](=O)[O-])cc1; assay: purified protein; assay type: biochemical, Pseudomonas sp. ECU1011; conditions: 100 mM Tris-HCl, 100 mM NaCl, pH 7.5, optimal temperature (45-50°C for WT, 30°C for mutants)
# [2] = target: EstE1 wild type (hyperthermophilic esterase); assay: SEC; Superdex 200 column equilibrated with 50 mM sodium phosphate, 150 mM NaCl, pH 7.0; molecular weight determination of the purified protein
# purified protein [3] = substrate: CCCCCC(=O)Oc1ccc([N+](=O)[O-])cc1; assay: purified protein; assay type: biochemical, uncultured archaeon; conditions: 100 mM Tris-HCl, 100 mM NaCl, pH 7.5, optimal temperature 70°C
# purified protein [4] = substrate: CC(=O)Oc1ccc([N+](=O)[O-])cc1; assay: purified protein; assay type: biochemical, Pseudomonas sp. ECU1011; conditions: 100 mM Tris-HCl, 100 mM NaCl, pH 7.5, optimal temperature (45-50°C)
molecule,measurement,setting,value
rPPE (Pseudomonas sp. ECU1011; D287E),Km,[1],6 ± 1 µM
same,kcat,[1],2.1 ± 0.1 s⁻¹
same,kcat/Km,[1],330000 ± 20000 M⁻¹ s⁻¹
EstE1 wild type (hyperthermophilic esterase) (enzyme),stoichiometry N,[2],2
rPPE (Pseudomonas sp. ECU1011; D287G),Km,[1],114 ± 2 µM
same,kcat,[1],13 ± 1 s⁻¹
same,kcat/Km,[1],110000 ± 10000 M⁻¹ s⁻¹
EstE1 (uncultured archaeon) (protein) MPLDPQIKPILERIRALSIAASPQELRRQVEEQSRLLTAAVQEPIAETRDVHIPVSGGSIRARVYFPKKAAGLPAVLYYHGGGFVFGSIETHDHICRRLSRLSDSVVVSVDYRLAPEYKFPTAVEDAYAALKWVADRADELGVDPDRIAVAGDSAGGNLAAVVSILDRNSGEKLVKKQVLIYPVVNMTGVPTASLVEFGVAETTSLPIELMVWFGRQYLKRPEEAYDFKASPLLADLGGLPPALVVTAEYDPLRDEGELYAYKMKASGSRAVAVRFAGMVHGFVSFYPFVDAGREALDLAAASIRSGLQPS,Km,purified protein [3],1520 ± 17 µM
same,kcat,purified protein [3],2900 ± 1 s⁻¹
same,kcat/Km,purified protein [3],1.91e+06 ± 20000 M⁻¹ s⁻¹
EstE1 (uncultured archaeon; G282N) (protein) MPLDPQIKPILERIRALSIAASPQELRRQVEEQSRLLTAAVQEPIAETRDVHIPVSGGSIRARVYFPKKAAGLPAVLYYHGGGFVFGSIETHDHICRRLSRLSDSVVVSVDYRLAPEYKFPTAVEDAYAALKWVADRADELGVDPDRIAVAGDSAGGNLAAVVSILDRNSGEKLVKKQVLIYPVVNMTGVPTASLVEFGVAETTSLPIELMVWFGRQYLKRPEEAYDFKASPLLADLGGLPPALVVTAEYDPLRDEGELYAYKMKASGSRAVAVRFAGMVHNFVSFYPFVDAGREALDLAAASIRSGLQPS,Km,purified protein [3],1330 ± 79 µM
same,kcat,purified protein [3],1980 ± 84 s⁻¹
same,kcat/Km,purified protein [3],1.49e+06 ± 30000 M⁻¹ s⁻¹
EstE1 (uncultured archaeon; G282Q) (protein) MPLDPQIKPILERIRALSIAASPQELRRQVEEQSRLLTAAVQEPIAETRDVHIPVSGGSIRARVYFPKKAAGLPAVLYYHGGGFVFGSIETHDHICRRLSRLSDSVVVSVDYRLAPEYKFPTAVEDAYAALKWVADRADELGVDPDRIAVAGDSAGGNLAAVVSILDRNSGEKLVKKQVLIYPVVNMTGVPTASLVEFGVAETTSLPIELMVWFGRQYLKRPEEAYDFKASPLLADLGGLPPALVVTAEYDPLRDEGELYAYKMKASGSRAVAVRFAGMVHQFVSFYPFVDAGREALDLAAASIRSGLQPS,Km,purified protein [3],745 ± 40 µM
same,kcat,purified protein [3],950 ± 27 s⁻¹
same,kcat/Km,purified protein [3],1.28e+06 ± 30000 M⁻¹ s⁻¹
rPPE (Pseudomonas sp. ECU1011) (protein) GSPGVEQHTKAFLEALEQGGGKPLEQLSPKDARAVLTGAQASVKVDLSGIEVKERTIQANGQSIKLQVVRPANVKGELPVFMFFHGGGWVLGDFPTHQRLIRDLVVGSGAVAVYVDYTPSPESHYPTAINQAYAATQWVAEHGKEIGVDGKRLAVAGNSVGGNMAAVVALKAKEAGTPALRFQLLLWPVTDASFETASYKQFADGHFLTTGMMKWFWDNYTTDAKAREQIYASPLRASSEQLKGLPPALVQTAEFDVLRDEGEAYARKLNAAGVTVTSVRYNGMIHDYGLLNPLSQVPAVKAAMRQAGTELKVHLQ,Km,purified protein [4],33 ± 1 µM
same,kcat,purified protein [4],2 ± 0.1 s⁻¹
same,kcat/Km,purified protein [4],60000 ± 10000 M⁻¹ s⁻¹

# From PMC12502808, “Catalytic His-loop flexibility drives high activity in hyperthermophilic esterase EstE1 while preserving structural stability” (Microbiology Spectrum, 2025)
